In US20030166872A1 (APPLIED MOLECULAR EVOLUTION, published 2003):
Residue numbers refer to the chain shown, from its start. Blank lines part the entries; values can stand above or below the binder they belong to.

What was measured:
[1] = molecular target: T1, integrin αVβ3 (human), P06756; assay: SPR (BIAcore)
T1 chain 1: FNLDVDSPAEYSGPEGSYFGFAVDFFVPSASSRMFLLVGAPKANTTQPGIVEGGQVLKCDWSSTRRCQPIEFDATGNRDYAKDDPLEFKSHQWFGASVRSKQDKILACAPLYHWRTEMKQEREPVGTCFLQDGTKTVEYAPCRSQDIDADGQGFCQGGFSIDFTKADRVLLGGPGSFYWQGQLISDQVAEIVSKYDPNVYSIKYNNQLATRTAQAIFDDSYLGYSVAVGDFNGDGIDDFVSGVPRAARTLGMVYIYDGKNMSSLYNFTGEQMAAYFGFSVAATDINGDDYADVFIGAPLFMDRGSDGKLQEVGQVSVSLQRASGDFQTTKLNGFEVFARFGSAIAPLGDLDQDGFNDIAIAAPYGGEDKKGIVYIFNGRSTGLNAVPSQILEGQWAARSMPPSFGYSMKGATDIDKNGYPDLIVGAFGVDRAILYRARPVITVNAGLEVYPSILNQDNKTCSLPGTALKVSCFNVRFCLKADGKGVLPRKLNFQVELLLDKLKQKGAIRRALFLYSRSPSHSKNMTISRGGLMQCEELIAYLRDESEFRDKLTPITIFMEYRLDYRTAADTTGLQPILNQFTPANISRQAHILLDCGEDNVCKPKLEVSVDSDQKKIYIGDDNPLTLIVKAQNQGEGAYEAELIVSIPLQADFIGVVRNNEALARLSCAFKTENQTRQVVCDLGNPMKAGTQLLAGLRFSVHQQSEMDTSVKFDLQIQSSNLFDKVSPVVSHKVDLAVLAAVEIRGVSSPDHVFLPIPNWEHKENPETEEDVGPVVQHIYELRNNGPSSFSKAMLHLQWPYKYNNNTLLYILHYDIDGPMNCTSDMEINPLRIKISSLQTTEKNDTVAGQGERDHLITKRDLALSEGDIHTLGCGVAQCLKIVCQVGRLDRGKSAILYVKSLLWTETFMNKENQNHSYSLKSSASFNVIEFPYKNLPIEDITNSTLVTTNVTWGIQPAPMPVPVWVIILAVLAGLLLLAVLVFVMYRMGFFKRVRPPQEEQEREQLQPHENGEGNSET
T1 chain 2: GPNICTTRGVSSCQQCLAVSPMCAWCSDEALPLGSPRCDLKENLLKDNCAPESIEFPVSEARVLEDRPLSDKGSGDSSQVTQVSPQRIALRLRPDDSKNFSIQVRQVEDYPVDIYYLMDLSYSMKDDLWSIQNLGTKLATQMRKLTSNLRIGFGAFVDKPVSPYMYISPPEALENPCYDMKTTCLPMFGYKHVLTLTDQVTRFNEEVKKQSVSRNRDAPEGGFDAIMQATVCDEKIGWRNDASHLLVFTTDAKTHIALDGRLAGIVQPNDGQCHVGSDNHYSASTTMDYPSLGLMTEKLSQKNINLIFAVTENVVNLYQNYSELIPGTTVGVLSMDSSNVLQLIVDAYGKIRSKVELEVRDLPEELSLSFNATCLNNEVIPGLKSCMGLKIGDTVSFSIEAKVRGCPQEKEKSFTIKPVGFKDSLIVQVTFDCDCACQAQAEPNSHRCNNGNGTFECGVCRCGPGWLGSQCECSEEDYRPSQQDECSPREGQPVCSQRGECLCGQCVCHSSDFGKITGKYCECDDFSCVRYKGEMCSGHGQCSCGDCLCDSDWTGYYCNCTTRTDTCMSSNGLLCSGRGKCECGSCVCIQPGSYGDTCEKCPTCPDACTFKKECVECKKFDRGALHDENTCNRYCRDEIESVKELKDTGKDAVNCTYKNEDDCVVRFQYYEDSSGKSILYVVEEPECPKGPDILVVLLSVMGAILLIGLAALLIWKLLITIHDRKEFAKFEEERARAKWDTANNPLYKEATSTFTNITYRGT

[2] = molecular target: T1, integrin αVβ3 (human), P06756; assay: SPR (BIAcore), Fab over immobilized αVβ3
[3] = molecular target: T1, integrin αVβ3 (human), P06756; assay: SPR (BIAcore), ratio of Kd
integrin αVβ3 [4] = molecular target: T2, integrin αVβ3 (human, UniProt P06756 31-1048; P05106 27-788); assay: SPR (BIACORE), as in Example VI
T2 construct: mature; biotinylated in capture lift and capture ELISA; also on M21 melanoma cells in some assays; also called vitronectin receptor; αVβ3 receptor
Method: The affinities of select variants were further characterized by utilizing surface plasmon resonance (BIAcore) to measure the association and dissociation rates of purified Fab with immobilized αVβ₃. […] To obtain association rate constants (kₒₙ), the binding rate at five different Fab concentrations, ranging from 5-40 μg/ml in 50 mM Tris-HCl, pH 7.4, 100 mM NaCl, 2 mM CaCl₂, and 1 mM MgCl₂, was determined at a flow rate of 10 μl/min. Dissociation rate constants (koff) were the average of five measurements obtained by analyzing the dissociation phase at an increased flow rate (40 μl/min). Sensorgrams were analyzed with the BIAevaluation 2.1 program (Pharmacia). Residual Fab was removed after each measurement with 10 mM HCl, 2 mM CaCl₂ and 1 mM MgCl₂.

integrin αVβ3 [5] = molecular target: T2, integrin αVβ3; assay: ELISA titration of Fab on immobilized αVβ3
Method: For ELISA titration of Fab on immobilized αVβ₃ and the related integrins αVβ₅ and αIIbβ₃, Immulon II microtiter plates were coated with 1 μg/ml purified receptor in 20 mM Tris, pH 7.4, 150 mM NaCl, 2 mM CaCl, 1 mM MgCl₂, 1 mM MnCl₂, washed once, and blocked in 3% BSA in 50 mM Tris, pH 7.4, 100 mM NaCl, 2 mM CaCl₂, 1 mM MgCl₂ for 1 h at 25° C. […] Just prior to use, the plates were washed two times and were then incubated 1 h at 25° C. with various dilutions of Fab. […] All dilutions and washes were in 50 mM Tris-HCl, pH 7.4, 100 mM NaCl, 2 mM CaCl₂, and 1 mM MgCl₂.

integrin αVβ3 [6] = molecular target: T2, integrin αVβ3; assay: SPR (BIAcore)
integrin αVβ3 [7] = molecular target: T2, integrin αVβ3; assay: inhibition of binding of 0.1 µg/ml biotinylated fibrinogen to immobilized αVβ3, 3 h at 37 °C, detection with NeutrAvidin alkaline phosphatase
integrin αVβ3 [8] = molecular target: T2, integrin αVβ3; assay: ELISA screen of the position 49 library (target printed αvβ5 here, αvβ3 in paragraph 179)
integrin αVβ5 = molecular target: T3, integrin αVβ5 (human, UniProt P06756 31-1048; P18084 24-799); assay: ELISA on coated integrin, detection with goat anti-human IgG alkaline phosphatase
T3 construct: mature
T3 sequence (P18084 24-799, chain 2 of 2, one chain of several): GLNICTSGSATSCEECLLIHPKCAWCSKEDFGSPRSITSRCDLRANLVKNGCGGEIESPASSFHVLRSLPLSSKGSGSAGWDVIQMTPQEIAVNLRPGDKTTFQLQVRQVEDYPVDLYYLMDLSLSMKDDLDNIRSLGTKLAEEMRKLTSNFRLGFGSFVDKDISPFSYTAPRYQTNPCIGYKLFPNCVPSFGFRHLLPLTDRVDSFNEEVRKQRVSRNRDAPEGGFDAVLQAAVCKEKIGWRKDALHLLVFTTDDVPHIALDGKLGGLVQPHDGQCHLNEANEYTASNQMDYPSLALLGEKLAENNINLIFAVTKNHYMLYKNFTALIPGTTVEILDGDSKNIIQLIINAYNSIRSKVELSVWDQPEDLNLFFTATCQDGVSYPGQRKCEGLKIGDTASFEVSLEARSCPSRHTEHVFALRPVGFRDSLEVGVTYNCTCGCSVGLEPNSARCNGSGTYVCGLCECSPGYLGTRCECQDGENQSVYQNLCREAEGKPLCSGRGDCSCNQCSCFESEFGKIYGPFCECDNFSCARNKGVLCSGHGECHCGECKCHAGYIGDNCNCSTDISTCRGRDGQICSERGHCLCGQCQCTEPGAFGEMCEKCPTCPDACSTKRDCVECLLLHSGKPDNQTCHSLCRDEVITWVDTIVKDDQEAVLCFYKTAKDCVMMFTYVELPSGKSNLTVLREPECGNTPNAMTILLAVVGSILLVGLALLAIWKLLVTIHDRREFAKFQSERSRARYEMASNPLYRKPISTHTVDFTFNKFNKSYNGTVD
Method: Specifically, binding specificity was assessed by measuring binding to αIIbβ₃, the major integrin expressed on platelets, and to αVβ₅ an integrin found prevalent on endothelial cells and connective tissue cell types.
Antibody binding activity was assessed by ELISA using a goat anti-human IgG-alkaline phosphatase conjugate.

Kd (integrin αVβ3 [4]): 0.9 nM
B2: enhanced LM609 grafted antibody clone 2236-38/6H6LH (Fab, V domains shown)
VH: QVQLVESGGGVVQPGRSLRLSCAASGFTFSSYDMSWVRQAPGKGLEWVAKVSSGGGSTYYPDTVQGRFTISRDNSKNTLYLQMNSLRAEDTAVYYCARHLHGSFASWGQGTTVTVSS
VL: EIVLTQSPATLSLSPGERATLSCQASQSISNFLHWYQQRPGQAPRLLIRYRSQSISGIPARFSGSGSGTDFTLTISSLEPEDFAVYYCQQSGSWPLTFGGGTKVEIK

fold enhanced binding over LM609 grafted antibody (integrin αVβ3 [5]): > 3 fold
B9: LM609 grafted antibody variant W29 (Fab, V domains shown)
VH: B2 VH with F29W, P61L, L100N, H101Y, S106Y
VL: B2 VL with F32H, L96H
notes: Fab

fold enhanced binding over LM609 grafted antibody (integrin αVβ3 [5]): > 3 fold
B11: LM609 grafted antibody variant T92 (Fab, V domains shown)
VH: B2 VH with P61L, L100N, H101Y, S106Y
VL: B2 VL with F32H, G92T, L96H
notes: Fab

binding result (integrin αVβ3 [8]): binds
B12: LM609 grafted antibody clone with Met at position 49 of the light chain (Fab, V domains shown)
VH: B2 VH with P61L, L100N, H101Y, S106Y
VL: B2 VL with F32H, R49M, L96H
notes: From the library of 19 non-donor residues at light chain position 49

binding result (integrin αVβ5): no binding (tested: about 2000 ng/ml)
B14: Vitaxin (antibody, V domains shown)
VH: B2 VH with P61L, L100N, H101Y, S106Y
VL: B2 VL with F32H, R49K, L96H
notes: also called huLM609M13 1135-4; grafted LM609

More lines, now with the values behind:

B1: LM609 grafted antibody combinatorial clone V357D (Fab)
chain 1: B2 VH with P61L, L100N, H101Y, S106D
chain 2: B2 VL with L96H
modifications: not checked
fold slower dissociation rate [1]: > 10 fold
Kd [2]: 0.5 nM
koff [2]: 0.00014 s⁻¹
kon [2]: 279000 M⁻¹ s⁻¹
fold enhanced affinity over parent LM609 grafted antibody [3]: > 50 fold

B3: LM609 grafted antibody variant M102 (Fab, V domains shown)
VH: B2 VH with P61L, L100N, H101Y, S106M
VL: B2 VL with F32H, L96H
notes: Fab
fold enhanced binding over LM609 grafted antibody (integrin αVβ3 [5]): > 3 fold

B4: LM609 grafted antibody variant L96 (Fab, V domains shown)
VH: B2 VH with P61L, L100N, H101Y, S106Y
VL: B2 VL with F32H
notes: Fab
fold enhanced binding over LM609 grafted antibody (integrin αVβ3 [5]): > 3 fold

B5: LM609 grafted antibody combinatorial clone 6H6 (Fab, V domains shown)
VH: B2 VH with P61L, L100N
VL: B2 VL with F32H
notes: Fab
fold slower dissociation rate (integrin αVβ3 [6]): > 10 fold
Kd (integrin αVβ3 [4]): 0.62 nM

B6: LM609 grafted antibody variant S51 (Fab, V domains shown)
VH: B2 VH with P61L, L100N, H101Y, S106Y
VL: B2 VL with F32H, R51S, L96H
notes: Fab
fold enhanced binding over LM609 grafted antibody (integrin αVβ3 [5]): > 3 fold

B7: LM609 grafted antibody variant P60 (Fab, V domains shown)
VH: B2 VH with L100N, H101Y, S106Y
VL: B2 VL with F32H, L96H
notes: Fab
fold enhanced binding over LM609 grafted antibody (integrin αVβ3 [5]): > 3 fold

B8: LM609 grafted antibody combinatorial clone C59 (Fab, V domains shown)
VH: B2 VH with L100N, H101Y, S106D
VL: B2 VL with L96H
notes: Fab
IC50 (read off the curve) (integrin αVβ3 [7]): ~0.06 µg/mL
fold slower dissociation rate (integrin αVβ3 [6]): > 10 fold

B10: LM609 grafted antibody variant Q96 (Fab, V domains shown)
VH: B2 VH with P61L, L100N, H101Y, S106Y
VL: B2 VL with F32H, L96Q
notes: Fab
fold enhanced binding over LM609 grafted antibody (integrin αVβ3 [5]): > 3 fold

B13: LM609 grafted antibody variant T27 (Fab, V domains shown)
VH: B2 VH with F27T, P61L, L100N, H101Y, S106Y
VL: B2 VL with F32H, L96H
notes: Fab
fold enhanced binding over LM609 grafted antibody (integrin αVβ3 [5]): > 3 fold

B15: LM609 grafted antibody variant N92 (Fab, V domains shown)
VH: B2 VH with P61L, L100N, H101Y, S106Y
VL: B2 VL with F32H, G92N, L96H
notes: Fab
fold enhanced binding over LM609 grafted antibody (integrin αVβ3 [5]): > 3 fold
